# Results as given in paper PMC6925320.
# Target: lipolysis-stimulated lipoprotein receptor (LSR) on Caco-2 cells (human (endogenous in Caco-2)) (UniProt Q86X29)
# Test: flow cytometry on cells
# Sequence of UniProt Q86X29 (Q86X29 whole entry): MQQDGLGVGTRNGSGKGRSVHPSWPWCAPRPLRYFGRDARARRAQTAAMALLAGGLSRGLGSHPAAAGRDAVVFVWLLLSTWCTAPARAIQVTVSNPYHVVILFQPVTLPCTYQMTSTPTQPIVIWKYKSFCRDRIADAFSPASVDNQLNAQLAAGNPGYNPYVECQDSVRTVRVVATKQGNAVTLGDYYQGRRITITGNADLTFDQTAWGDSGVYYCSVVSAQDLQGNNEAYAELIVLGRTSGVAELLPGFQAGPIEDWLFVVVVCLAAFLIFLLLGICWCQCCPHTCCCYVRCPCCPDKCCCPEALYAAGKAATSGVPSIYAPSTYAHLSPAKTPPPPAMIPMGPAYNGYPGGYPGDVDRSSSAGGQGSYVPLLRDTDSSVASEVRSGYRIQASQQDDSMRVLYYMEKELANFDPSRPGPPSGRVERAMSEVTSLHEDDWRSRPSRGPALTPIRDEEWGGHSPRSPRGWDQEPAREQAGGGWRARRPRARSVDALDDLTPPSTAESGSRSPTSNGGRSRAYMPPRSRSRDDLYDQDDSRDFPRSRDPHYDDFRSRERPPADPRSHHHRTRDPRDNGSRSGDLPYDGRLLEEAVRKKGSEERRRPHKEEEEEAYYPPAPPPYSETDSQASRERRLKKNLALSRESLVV
row,Substance,Kd [nM]
1,Alexa-647-labeled CDTb T854E (from UniProt Q9KH41 43-876) (natural protein),38
2,Alexa-647-labeled CDTb I852E (from UniProt Q9KH41 43-876) (natural protein),75
3,"Alexa-647-labeled CDTb, wild type (from UniProt Q9KH41 43-876) (natural protein)",4.5
4,Alexa-647-labeled CDTb Y812D (from UniProt Q9KH41 43-876) (natural protein),3.9
5,Alexa-647-labeled CDTb F774D (from UniProt Q9KH41 43-876) (natural protein),> 50

# Target: trypsin-activated CDTb (cell-binding component of the C. difficile transferase toxin), oligomer (Clostridioides difficile strain R20291) (UniProt Q9KH41)
# Test: cryo-EM structure
row,Substance,stoichiometry N
1,"trypsin-activated CDTb (cell-binding component of the C. difficile transferase toxin), oligomer (from UniProt Q9KH41 43-876) (natural protein)",7
